# From the nanobody polyreactivity screen of Harvey et al. (2022)
# Test: yeast display, Sf9 membrane polyspecificity reagent, FACS + sequencing; frameworks hold sequencing errors
# Summary of the method: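 Using colony PCR, genes from sorted yeast display clones were amplified, then sequenced on MiSeq at 2 × 250 and filtered by CDR length. The clones had been stained with 10% biotinylated, detergent-solubilized Sf9 membrane reagent for 1 hour at 4 °C and sorted by FACS into low and high (top ~1%) gates on anti-HA and streptavidin fluorescence. Polyreactivity labels come from the gate of origin.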
row,Sequence,polyreactivity (PSR sort gate)
1,QVQLVESGGGLVQAGGSLRLSCAASGFTFSWYAMGWYRQAPGKERELVAVITGAGITDYADSVKGRFTISRDNAKNTVYLQMNSLKPEDTAVYYCNAKSDRGVSGSGSGAYDYWGQGTQVTVSS,low polyreactivity
2,QVQLVESGGGLVQAGGSLRLSCAASGFTFSYNTMGWYREAPGKERELVAAISRSGGRTFYADSVKGRFTISRDNAKNTVYLQMNSLKPEDTAVYYCARPWFDYWGQGTQVTVSS,high polyreactivity
3,QVQLVESGGGLVQAGGSLRLSCAASGFTFSYNTMGWYRQAPGKERELVAAIDGSGGSTYYADSVKGRFTISRDNAKNTVYLQMNSLKPEDTAVYYCAAEWYRGGEYRRYDYWGQGTQVTVSS,high polyreactivity
4,QVQLVESGGGLVQAGGSLRLSCAASGFTFSYYAKGWYRQAPGKERELVARISFSGTRTYYADSVKGRFTISRDNAKKTVYLQMKSLKPEDTAVSYWARRPGAWKYVYSGDYWGQGTQVTVSS,high polyreactivity
5,QVQLVESGGGLVQAGGSLRLSCAASGFTFSYYAKGWYRQAPGKERELVAVISDRGGITYYADSVKGRFTISRDNAKNTVYLQMNSLKPEDTAVYYCAAQNPRYNDRYYYWGQGTQVTVSS,low polyreactivity
6,QVQLVESGGGLVQAGGSLRLSCAASGFTFSYYAMGWYRQAPGKERELVAAIRGGGSTYADSVKGRFTISRDNAKNTVYLQMHSLKPEDTAVYYCAARYSGSPYPTRRYDYWGQGTQVTVSS,high polyreactivity
7,QVQLVESGGGLVQAGGSLRLSCAASGFTFSYYAMGWYRQAPGKERELVAAISWNGGSTYYADSVKGRFTISRDNAKNTVYLQMNCLKPEDTAVYYCAADSLLYYYDTGYEYWGQGTQVTVSS,high polyreactivity
8,QVQLVESGGGLVQAGGSLRLSCAASGFTFSYYAMGWYRQAPGKERELVASISRSGNTYYADSVKGRFTISRDNAKNSVYLQMNSLKPEDTAVYYCAAAYKSYYLDGTYYYWGQGTQVTVSS,high polyreactivity
9,QVQLVESGGGLVQAGGSLRLSCAASGFTFSYYGMGWYRQAPGKERELVAAISWSGGRTYYADSVKGRFTISRDNAKNTVYLQMNSLKPEDTAVYYCAASAPRGYGYKYYYWGQGTQVTVSS,high polyreactivity
10,QVQLVESGGGLVQAGGSLRLSCAASGFTFSYYTMGWYRQAPGKERELVAAISSTGVSTYYADSVKGRFTISRDNAKNTVYLQMNSLKPEDTAVYYCAADYYGVYEYYYWGQGTQVTVSS,high polyreactivity
11,QVQLVESGGGLVQAGGSLRLSCAASGFTFTANAMGWYRQAPGKERELVAAITRNGGRTYYADSVKGRFTLSRDNAKNNVYLQMNSLKPEDTAVYYCAKPNSQRIHDDYDYWGQGTQVTVSS,high polyreactivity
12,QVQLVESGGGLVQAGGSLRLSCAASGFTFTAYAMGWYRQAPGKERELVAAISYRGGRTNYAYSVKGRFTISRDNAKNTVYLQMNSLKPEDTAVYYCAARPRISTREMDYWGQGTQVTVSS,high polyreactivity
13,QVQLVESGGGLVQAGGSLRLSCAASGFTFTDYAKGWYRQAPGKERELVAAITKGGGRTYYADSVKWRFTISRDNAKNSVYLQMNSQKPEDTAVYYCNARYQVPYGYWGQGTQVTVSS,low polyreactivity
14,QVQLVESGGGLVQAGGSLRLSCAASGFTFTGYAMGWYRQAPGKERELVAAISQSGGSTYADSVKGRFTISRDNAKNTVYLQMNSLKPEDTAVYYCAAVWFLLTEYDYWGQGTQVTVSS,low polyreactivity
15,QVQLVESGGGLVQAGGSLRLSCAASGFTFTGYAMGWYRQAPGKERELVAAISQSGGSTYADSVKGRFTISRDNAKNTVYLQMNSLKPEDTAVYYCNAATHGPFDYWGQGTQVTVSS,low polyreactivity
16,QVQLVESGGGLVQAGGSLRLSCAASGFTFTKNAMGWYRQAPGKERELVAAISRGGRTYYADSVKGRFTISRDNAKNTVYLQMNSLKPEDTADYYCAKGYASQILVAPRSQYYYWGQGTQVTVSS,high polyreactivity
17,QVQLVESGGGLVQAGGSLRLSCAASGFTFTKYDMGWYRQAPGKERELVAVITWSGGSTYYADSVKGRFTISRDNAKNTVYLQMNSLKPEDTAVYYCNDEAPRYTYGRMDYWGQGTQVTVSS,low polyreactivity
18,QVQLVESGGGLVQAGGSLRLSCAASGFTFTNYAMGWYRQAPGKERELVAAINSSGSTNYADSVKGRFTISRDNAKNTVYLQMNSLKPEDTAVYYCAVDYSYWVHGFWDDYDYWGQGTQVTVSS,low polyreactivity
19,QVQLVESGGGLVQAGGSLRLSCAASGFTFTPNAMGRYRQAPGKERELVAVISYSGGSTYYADSVKGRFTISRDNAKNTVYLQMNSLKPEDTAVYYCAKRTYSSKYFGFEYWGQGTQVTVSS,high polyreactivity
20,QVQLVESGGGLVQAGGSLRLSCAASGFTFTQYAMGWYGQAPGKEREFVAAITASGGSTYYADSVKGRFTISRDNAKNTVYLQMNSLKPEDTAVYYCAAKGRPDGKYDYWGQGTQVTVSS,high polyreactivity
21,QVQLVESGGGLVQAGGSLRLSCAASGFTFTRNAMGWYRQAPGKERELVAAITSSGGRTYYADSVKGRFTISRDNAKNTVYLQMNSLKPEDTAVYYCAVYPRYSLPARDYDYWGQGTQVTVSS,high polyreactivity
22,QVQLVESGGGLVQAGGSLRLSCAASGFTFTRYAMGWYRQAPGKERELVADITRSGGTTYYADSVKGRFTISRDNAKNTVYLQMNSLKPEDTAVYYCAADTYSHGRYYRMDYWGQGTQVTVSS,high polyreactivity

row,Sequence,polyreactivity (PSR sort gate)
1,QVQLVESGGGLVQAGGSLRLSCAASGFTFTSNAMGWYRQAPGKERELVAAITSSGGITYYADSVKGRFTISRDNAKNTVYLQMNSLKPEDTAVYYCAASISSYNSPGYGYWGQGTQVTVSS,low polyreactivity
2,QVQLVESGGGLVQAGGSLRLSCAASGFTFTSNAMGWYRQAPGKERELVAVISTRGGSTYYADSVKGRFTISRDNAKNTVYLQMNSLKPEDTAVYYCAARQIPNSVLVHYGYWGLGTQVTVSS,high polyreactivity
3,QVQLVESGGGLVQAGGSLRLSCAASGFTFTSYTMGWYRQAPGKERELVAVISWSGGGTYYADSVKGRFTISRDNAKNTVYLQMNSLKPEDTAVYYCNKAPTNLFGGRYDYWGQGTQVTVSS,low polyreactivity
4,QVQLVESGGGLVQAGGSLRLSCAASGFTFTTYVMGWYRQAPGKERELVAAISRRGTSTRYADSVKGRFTISRDNAKNTVYLQMNSLKPEDTAVYYCAADRPYSIVPYDYWGQGTQVTVSS,high polyreactivity
5,QVQLVESGGGLVQAGGSLRLSCAASGFTFTVYAMGWYRQAPGKERELVAVITSGDGTYYADSVKGRFTISRDNAKNTVYLQMHSLKPEDTAVYYCNARRYSSLRYRFAYDYWGQGTQVTESS,low polyreactivity
6,QVQLVESGGGLVQAGGSLRLSCAASGFTFTWYAMGWYRQAPGKERELVASISRSGGSTYYADSVKGRFTISRDNAKNTVYLQMNSLKPEDTAVYYCAAVSRTRSYDYWGQGTQVTVSS,high polyreactivity
7,QVQLVESGGGLVQAGGSLRLSCAASGFTFTYNDMGWYIQAPGKEREFVAAISSTGGSTYYADSVKGRFTISRDNAKNTVYLQMNSLKAEDTAVYYCAAEDSWYWDAWFDYWGQGTQVTVSS,low polyreactivity
8,QVQLVESGGGLVQAGGSLRLSCAASGFTFTYNDMGWYRQAPGKEREFVAAISSTGGSTYYADSVKGRFTISRDNAKNTVYLQMNSLKPEDTAVYYCAAEDSWYWDAWFDYWGQGTQVTVSS,low polyreactivity
9,QVQLVESGGGLVQAGGSLRLSCAASGFTFTYYALGWYRQAPGKERQLVAAISSRGGRTYYADSVKVRFRISRDNAKNTVYLLMKSLKPEDTAVYYCAARVYKGWPTHYDYLGQGTQVTVSS,high polyreactivity
10,QVQLVESGGGLVQAGGSLRLSCAASGFTFTYYAMGWYRQAPGKERELVAAISWNGGSTYYADSVKGRFTISRDNAKNTVYLQMNSLKPEDTAVYYCNAYDYQYFYGYEYDYWGQGTQVTVSS,high polyreactivity
11,QVQLVESGGGLVQAGGSLRLSCAASGFTFTYYAMGWYRQAPGKERELVAAITKSGGSTYYADSVKGRFTISRDNAKNTVYLQMNSLKPEDTAVYYCAADTRYGRERYYWGQGTQVTVSS,high polyreactivity
12,QVQLVESGGGLVQAGGSLRLSCAASGFTFTYYAMGWYRQAPGKERELVAVITRSGNTYYADSVKGRFTISRDNAKNTVYLQMNSLKPEDTAVYYCATVGQRLHLGYWGQGTQVTVSS,high polyreactivity
13,QVQLVESGGGLVQAGGSLRLSCAASGFTFVGNAMGWYRQAPGLERELVAAITRGGSSYYADSVKGRFTISRDNAKKTVYLQMNSLKPEDTAVYYCNAELPVHWSWYDYWGQGTQVTVSS,low polyreactivity
14,QVQLVESGGGLVQAGGSLRLSCAASGFTFVGYAMGWYRQAPGKERELVAAISSSGVSTYYADSVKGRFTISRDNAKNTVYLQMNSLKPEDTAVYYCNRVSVYRSSHLLWGGYWGQGTQVTVSS,low polyreactivity
15,QVQLVESGGGLVQAGGSLRLSCAASGFTFVINDMGWYRQAPGKERELVADITSGGDKYYADSVKGRFTISRDNAKNTVYLQMISLKPEDTAVYYCARDNERDYYTYPYDYWGQGTQVTVSS,low polyreactivity
16,QVQLVESGGGLVQAGGSLRLSCAASGFTFVIYAMGWYRQAPGTERELVATITGSGGSTYYADSVKWRITISRDNAKNTVYLQMNSLKPEDTAVYYCAARRRYQRYSRYDYWGLGTQVTVSS,high polyreactivity
17,QVQLVESGGGLVQAGGSLRLSCAASGFTFVKYAMGWYRQAPGKERELVAVISRRGGSTYYADSVKGRFTISRDNAKNTVYLQMNSLKPEDTAVYYCAAKVALPRTQEWEYGYWGQGTQVTVSS,high polyreactivity
18,QVQLVESGGGLVQAGGSLRLSCAASGFTFVKYAMGWYRQAPGKVRELVASISSGGSTYYADSVKGRFTISRDNAKNTVYLQMNSLKPEDTAVYYCNKSPGYGRYSRRYDSWGQGTQVTVSS,high polyreactivity
19,QVQLVESGGGLVQAGGSLRLSCAASGFTFVPYAMGWYRQAPGKEREFVADITSSGTTNYADSVKGRFTISRDNAKNTVYLQMNSLKPEDTAVYYCAADPDSGQVPFDYWGQGTQVTVSS,low polyreactivity
20,QVQLVESGGGLVQAGGSLRLSCAASGFTFVQYAMGWYRPAPGKERELVARISSSGGSTYYADSVKGRFTISRDNAKNTVYLQMTSLKPEDTAVYYCAARRSHYYYVARFDYWGQGTQVTVSS,high polyreactivity
21,QVQLVESGGGLVQAGGSLRLSCAASGFTFVQYAMGWYRPAPGKERELVATISKSGGITYYADSVKGRFTISRDTAKNTVYLHMNSVKPEDTAVYYCAAAWYYSSRGFHATWGHDYWGQGTQVTVSS,low polyreactivity
